Numbering of substitutions follows the chain as printed. In names and notes the source's numbering stands. Values belong to the molecule of their own block, whether it stands above or below them.
What was measured:
[1] = biological target: flag-tagged KV7.2 channel subunit (UniProt O43526)
[2] = biological target: flag-tagged KV7.2 channel subunit (UniProt O43526); remark: listed apart in the source

UniProt O43526, sequence (O43526 whole entry): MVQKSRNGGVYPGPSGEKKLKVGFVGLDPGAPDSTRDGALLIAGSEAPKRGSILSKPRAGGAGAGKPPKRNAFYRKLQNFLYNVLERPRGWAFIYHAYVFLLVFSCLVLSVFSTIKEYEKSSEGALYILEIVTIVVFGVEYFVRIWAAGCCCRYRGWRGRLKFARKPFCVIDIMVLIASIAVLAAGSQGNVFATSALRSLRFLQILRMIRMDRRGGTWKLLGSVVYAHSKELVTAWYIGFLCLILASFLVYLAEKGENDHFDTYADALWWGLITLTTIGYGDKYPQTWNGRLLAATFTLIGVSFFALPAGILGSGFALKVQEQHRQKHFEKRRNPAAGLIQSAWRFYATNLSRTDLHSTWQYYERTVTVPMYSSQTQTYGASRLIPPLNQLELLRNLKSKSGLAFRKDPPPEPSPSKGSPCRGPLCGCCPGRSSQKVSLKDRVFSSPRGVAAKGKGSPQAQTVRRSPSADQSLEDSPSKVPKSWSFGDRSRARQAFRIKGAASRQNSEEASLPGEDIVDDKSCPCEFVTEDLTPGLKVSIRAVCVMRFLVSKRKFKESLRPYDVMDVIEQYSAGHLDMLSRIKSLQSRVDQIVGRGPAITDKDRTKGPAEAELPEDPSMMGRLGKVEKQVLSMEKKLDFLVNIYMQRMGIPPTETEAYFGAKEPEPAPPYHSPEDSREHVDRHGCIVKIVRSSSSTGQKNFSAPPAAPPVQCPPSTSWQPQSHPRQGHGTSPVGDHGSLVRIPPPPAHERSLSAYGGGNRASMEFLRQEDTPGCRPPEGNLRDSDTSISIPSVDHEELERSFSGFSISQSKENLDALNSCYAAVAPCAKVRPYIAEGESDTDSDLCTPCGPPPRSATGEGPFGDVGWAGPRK

steady-state current density at +20 mV (patch clamp) in CHO cells co-transfected with KV8.1(AAA) and wild-type KV7.2 (4:1), relative to both wild-type constructs [1]: 50% | current amplitude (patch clamp) in CHO cells co-transfected with KV8.1(AAA) and wild-type KV7.2 at a 1:1 ratio, relative to co-transfection of wild-type channels [2]: 49.4%
Molecule: pore-mutated KV8.1(AAA) (from UniProt Q6PIU1 1-500) (natural protein)

current amplitude (patch clamp) in CHO cells co-transfected with KV8.1 G399R and wild-type KV7.2 (4:1), relative to both wild-type constructs [2]: 54%
B1: KV8.1 G399R (natural protein)
chain: MPSSGRALLDSPLDSGSLTSLDSSVFCSEGEGEPLALGDCFTVNVGGSRFVLSQQALSCFPHTRLGKLAVVVASYRRPGALAAVPSPLELCDDANPVDNEYFFDRSSQAFRYVLHYYRTGRLHVMEQLCALSFLQEIQYWGIDELSIDSCCRDRYFRRKELSETLDFKKDTEDQESQHESEQDFSQGPCPTVRQKLWNILEKPGSSTAARIFGVISIIFVVVSIINMALMSAELSWLDLQLLEILEYVCISWFTGEFVLRFLCVRDRCRFLRKVPNIIDLLAILPFYITLLVESLSGSQTTQELENVGRIVQVLRLLRALRMLKLGRHSTGLRSLGMTITQCYEEVGLLLLFLSVGISIFSTVEYFAEQSIPDTTFTSVPCAWWWATTSMTTVGYRDIRPDTTTGKIVAFMCILSGILVLALPIAIINDRFSACYFTLKLKEAAVRQREALKKLTKNIATDSYISVNLRDVYARSIMEMLRLKGRERASTRSSGGDDFWF

current amplitude (patch clamp) in CHO cells co-transfected with KV8.1 W388G and wild-type KV7.2 (4:1), relative to both wild-type constructs [2]: 44.1%
B2: KV8.1 W388G (natural protein)
chain: B1 chain with W385G, R396G
